The results in this text go back to publication PMC10853802, “ESRP1 controls biogenesis and function of a large abundant multiexon circRNA”.

Common to all, as to settings: protein: recombinant; tags: His-SUMO removed by Ulp1
In one series the target is T1, ESRP1 qRRM2 WT (human, UniProt Q6NXG1 312-430).
T1 sequence: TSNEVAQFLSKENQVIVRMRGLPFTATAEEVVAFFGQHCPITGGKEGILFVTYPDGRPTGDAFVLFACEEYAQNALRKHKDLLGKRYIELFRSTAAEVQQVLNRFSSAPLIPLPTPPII
Nature of the series: X-ray crystallography (1.65 A); ITC: 100 mM NaCl, 10 mM Tris-HCl pH 8.0, 25 C; 300 uM protein injected into 20 uM RNA.

In a further series the target is T2, ESRP1 qRRM2 Y398A (human, UniProt Q6NXG1 312-430, Y398A).
T2 sequence: T1 sequence with Y87A
Nature of the series: ITC; ITC: 100 mM NaCl, 10 mM Tris-HCl pH 8.0, 25 C; 300 uM protein injected into 20 uM RNA. (In general: ITC needs no label: the signal is the heat of the interaction.)

A further series has as its target T3, ESRP1 qRRM2 F335A (human, UniProt Q6NXG1 312-430, F335A).
T3 sequence: T1 sequence with F24A
The series is described as above.

In the next series the target is T4, ESRP1 qRRM2 R397A (human, UniProt Q6NXG1 312-430, R397A).
T4 sequence: T1 sequence with R86A
Described as above.

Changes are numbered by the printed parent chain.

As to UGGUGGUGGUGG (ssRNA) [12-mer RNA], in the series with ESRP1 qRRM2 WT, the binding result is “binds”.
On to UGGUGG (ssRNA) [6-mer RNA], for which the binding result with ESRP1 qRRM2 Y398A, in the series with ESRP1 qRRM2 F335A and in the series with ESRP1 qRRM2 R397A was “no binding” throughout.
